pKd: −log10 of the molar value.

The assay addresses SARS-CoV-2 RBD (40592-VO8H, Sino Biological), Alexa Fluor 647 labelled (SARS-CoV-2) (UniProt P0DTC2).

As usually defined, the pKd is the Kd on a negative log10 scale, so that one unit is a factor of ten. On to “SARS-CoV-2 (2019-nCoV) spike antibody (40150-R007, Sino Biological)”, for which the pKd is 8.02.

The record behind these values is patent US20230360747A1.
